Reference: patent publication US20230417748A1 (GREEN CROSS, published 2023)

Legend:
Experiment in all cases: ELISA (FIG. 7)
[1] = target: T1, RBD-V367F (Sino biologics, 40592-V08H1) (SARS-CoV-2, UniProt P0DTC2 319-541)
T1 construct: domain: RBD

[2] = target: T2, RBD-N501Y (Sino biologics, 40592-V08H82) (SARS-CoV-2, UniProt P0DTC2 319-541)
T2 construct: domain: RBD

[3] = target: T3, RBD-A522S (Sino biologics, 40592-V08H21) (SARS-CoV-2, UniProt P0DTC2 319-541)
T3 construct: domain: RBD

[4] = target: T4, RBD-T478I (Sino biologics, 40592-V08H30) (SARS-CoV-2, UniProt P0DTC2 319-541)
T4 construct: domain: RBD

[5] = target: T5, RBD-N439K (Sino biologics, 40592-V08H14) (SARS-CoV-2, UniProt P0DTC2 319-541)
T5 construct: domain: RBD

[6] = target: Spike-D614G (Sino biologics, 40589-V08B4) (SARS-CoV-2, UniProt P0DTC2 16-1213)
[7] = target: T6, RBD-P479S (Sino biologics, 40592-V08H57) (SARS-CoV-2, UniProt P0DTC2 319-541)
T6 construct: domain: RBD

[8] = target: T7, RBD-S477N (Sino biologics, 40592-V08H46) (SARS-CoV-2, UniProt P0DTC2 319-541)
T7 construct: domain: RBD

Measured: binding result

B1: M5-4 (antibody, V domains shown)
VH: EVQLVESGGGLVKPGGSLRLSCAASGFTFSSRGMSWVRQAPGKGLEWVSTISFGDIYTYYPDSVKGRFTISRDNAKNSLYLQMNSLRAEDTAVYYCARPNDGYFDYWGQGTLVTVSS
VL: DIQMTQSPSSLSASVGDRVTITCKASQSVSNDVAWYQQKPGKAPKLLIYYASNRYTGVPSRFSGSGSGTDFTLTISSLQPEDFATYYCQQSYSAPYTFGGGTKVEIKR
binds: all assays above
